Literature values, collected in paper PMC11381654.

Molecular target: IL-4Rα (Homo sapiens) (UniProt P24394)

- Kd: 0.033 nM
Substance: dupilumab
